Two molecules from patent US12648946B2, “Combination of antibody-pyrrolobenzodiazepine derivative conjugate and PARP inhibitor” (DAIICHI SANKYO COMPANY, LIMITED, priority 2019, dated 2026) can be followed below.

Experiment [1] concerns JEG-3, human choriocarcinoma cell line of human CLDN6-positive cells. Put plainly: Internalization activity of antibodies (Mab-ZAP, CellTiter-Glo). The settings on record: antibody 1 nM with Mab-ZAP 0.5 nM, 5 days. It counts as cell-based. As for the experimental part:
(§1) Internalization activity of the mouse anti-CLDN6 antibodies B1 and C7 was evaluated by using the anti-mouse IgG reagent, to which a toxin that inhibits protein synthesis (saporin) had been conjugated, Mab-ZAP (Advanced Targeting Systems). In this evaluation, Mab-ZAP is incorporated into cells in a manner depending on the internalization activity of a mouse anti-CLDN6 antibody, and saporin, which inhibits protein synthesis, is released in the cells to suppress cell growth.
(§2) JEG-3 (ATCC HTB-36), a human choriocarcinoma cell line of human CLDN6-positive cells, NIH: OVCAR-3 (ATCC HTB-161), a human ovarian cancer cell line of human CLDN6-positive cells, or BxPC-3 (ATCC CRL-1687), a human pancreatic cancer cell line of human CLDN6-negative cells, was seeded in a 96-well cell culture microplate at 2×10^3 cells/well, and cultured under conditions of 37° C. and 5% CO2 overnight. On the next day, a mixed solution obtained by mixing each mouse anti-CLDN6 antibody or mouse IgG1 antibody (R&D Systems, Inc.) to a final concentration of 1 nM, with Mab-ZAP (final concentration: 0.5 nM) or AffiniPure Goat Anti-Mouse IgG, Fcγ Fragment Specific (Jackson ImmunoResearch Laboratories Inc.) (final concentration: 0.5 nM), without conjugated toxin, was added, and the cells were cultured under conditions of 37° C. and 5% CO2 for 5 days. The number of surviving cells was determined through quantification of ATP activity by using CellTiter-Glo Luminescent Cell Viability Assay (Promega Corporation).

Experiment [2] relates to NIH: OVCAR-3, human ovarian cancer cell line of human CLDN6-positive cells. The description is as above. It is filed as cell-based. Particulars: antibody 1 nM with Mab-ZAP 0.5 nM, 5 days. As for the experimental part:
as §1, §2

The test system of experiment [3] is BxPC-3, human pancreatic cancer cell line of human CLDN6-negative cells. The description is as above. The settings on record: antibody 1 nM with Mab-ZAP 0.5 nM, 5 days. It is filed as cell-based. As for the experimental part: as §1, §2
The target of experiment [4] is T1, human claudin-6 (Homo sapiens, UniProt P56747).
T1 construct: expressed in transfected cells; host or cells: CHO-K1 cells
T1 sequence (P56747 1-220): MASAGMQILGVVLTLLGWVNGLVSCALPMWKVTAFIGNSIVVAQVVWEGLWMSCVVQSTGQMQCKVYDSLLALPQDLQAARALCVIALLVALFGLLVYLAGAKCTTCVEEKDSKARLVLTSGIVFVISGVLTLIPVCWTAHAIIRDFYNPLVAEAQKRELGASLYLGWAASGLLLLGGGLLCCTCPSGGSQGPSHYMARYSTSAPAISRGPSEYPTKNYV
Put plainly: FACS analysis of hybridoma antibodies on claudin-6 forced-expression cells. It is filed as binding. The settings on record: human claudin-6-expressing CHO-K1 cells, cDNA transfection. As for the experimental part: Since the antigen for the 218B1 antibody and 218C7 antibody was estimated to be claudin-6 from the mass spectrometry, forced expression analysis by cDNA transfection was carried out.
Background: Flow cytometry measures light scatter and fluorescence of single cells or particles in a stream.

B1: B1: mouse anti-CLDN6 antibody from hybridoma 218B1; heavy chain variable region SEQ ID NO: 21, light chain SEQ ID NO: 19 (antibody, listed as Mus musculus, V domains shown)
VH: EVQLQQSGPELVKPGASVKISCKTSGYTFTEYTMHWVQQSHGKSLEWIGGVNPNSGDTSYNQKFKGKATLTVDKSSSTAYMELRSLTSEDSAVYYCARPGGYDVGYYAMDYWGQGTSVTVSS
VL: DIQMTQTASSLSASLGDRVTISCRASQDINNYLNWYQQKPDGTVKLLIYFTSRLHSGVPSRFSGSGSGTHYSLTITNLEQEDIATYFCQQGYPLPWTFGGGTKLEIK
modifications: amino acid sequence of variable region of B1 antibody heavy chain; amino acid sequence of variable region of B1 antibody light chain
As to B1, the “Cell growth-suppressing effect (internalization activity)” value in experiment [1] is reported as “cell growth-suppressing effect”; in experiment [2] it was “cell growth-suppressing effect”; in experiment [3], “no cell growth-suppressing effect”. The FACS reaction result in experiment [4] was “strong positive reaction”.

B2: C7: mouse anti-CLDN6 antibody from hybridoma 218C7; heavy chain variable region SEQ ID NO: 25, light chain SEQ ID NO: 23 (antibody, listed as Mus musculus, V domains shown)
VH: EVQLQQSGPELVKPGASVKISCKTSGYTFTEYTMHWVQQSHGKSLEWIGGVNPNSGDTSYNQKFKGKATLTVDKSSSTAYMELRSLTSEDSAVYYCARPGGYDVGYYAMDYWGQGTSVTVSS
VL: DIQMTQTASSLSASLGDRVTISCRASQDINNYLNWYQQKPDGTVKLLIYSTSRLHSGVPSRFSGSGSGTHYSLTITHLEQEDIATYFCQQGYPLPWTFGGGTKLEIK
modifications: amino acid sequence of variable region of C7 antibody heavy chain; amino acid sequence of variable region of C7 antibody light chain
In the case of B2, the results for the “Cell growth-suppressing effect (internalization activity)” value in experiment [1], in experiment [2] and in experiment [3] were “cell growth-suppressing effect”, “cell growth-suppressing effect” and “no cell growth-suppressing effect”, respectively. Further, the FACS reaction entry in experiment [4] is listed as “strong positive reaction”.
